The target of test [1] is HIV-1 CA protein (capsid) (HIV-1). The experiment in a line: cell-based or functional assay.
Test [2] has as its target HIV-1 gag polyprotein (HIV-1). The experiment in a line: cell-based or functional assay.

The text below walks through data of patent US20120165249A1.

For NYAD-1 (peptide), the inhibition of mature-like particle formation from purified CA protein in vitro (EM) (fold molar equivalent) in test [1] was 1. Further, in test [2], the release of immature-like particles from gag-transfected 293T cells (p24 ELISA) (fold reduction at 50 µM) came to 72 and the release of mature-like particles from gag-pol transfected 293T cells (p24 ELISA) (fold reduction at 50 µM) came to 67.
